US20090123940A1 (Johns Hopkins, published 2009)

How the values were obtained:
[1] = target: T1, native NPR of mouse brain (mouse, UniProt Q99J85 1-493); test: co-IP from mouse brain lysate with a rabbit antibody to Narp; knockout lysates as controls
T1 sequence (looked up): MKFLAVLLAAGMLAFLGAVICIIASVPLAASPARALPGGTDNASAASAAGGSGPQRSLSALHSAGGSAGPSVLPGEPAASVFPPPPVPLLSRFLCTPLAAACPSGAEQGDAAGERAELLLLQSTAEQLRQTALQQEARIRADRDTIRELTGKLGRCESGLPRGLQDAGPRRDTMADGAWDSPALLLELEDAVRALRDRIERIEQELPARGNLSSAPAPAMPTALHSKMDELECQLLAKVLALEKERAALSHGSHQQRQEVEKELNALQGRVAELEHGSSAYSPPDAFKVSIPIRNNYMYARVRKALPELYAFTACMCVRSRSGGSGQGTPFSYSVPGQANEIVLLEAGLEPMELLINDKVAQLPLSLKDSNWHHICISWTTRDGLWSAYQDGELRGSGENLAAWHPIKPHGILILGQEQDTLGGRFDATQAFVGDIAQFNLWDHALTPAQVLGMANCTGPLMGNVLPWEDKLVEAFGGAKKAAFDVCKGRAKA
Text: (§1) Narp and NP1 form highly organized homo- and hetero-multimer complexes that are covalently linked by N-terminal disulfide bonds (Xu et al., supra). Moreover, NPR and Narp formed heteromultimer complexes when coexpressed in HEK293T cells. Heteromultimer complex formation is dependent on the first and third cysteines of NPs that flank the first coiled-coil domain (Xu et al., supra). NPR was co-expressed with mutants of Narp, in which two or all three of the cysteines are mutated to serine. In mutant “Narp (C1, 2S),” the cysteines at positions 14 and […] were mutated to serines, and in mutant “Narp (C1, 2, 3S)” the cysteines at positions 14, 26, and 79 were mutated to serines. […] Thus, it appeared that NPR and Narp formed heterocomplexes that are stabilized by disulfide bonds. To examine NP complexes in brain, lysates from a control mouse were prepared and immunoprecipitated with rabbit antibody specific to NP1 or Narp. Lysates from knockout mice NP1 KO, Narp KO and combined NP1/Narp/NPR KO (NP TKO) were also utilized as controls. […] The ˜25 kDa band, presumptive NTF-NPR, also specifically co-IPed with both Narp and NP1. […] The pentraxin domain of Narp and NP1 is required for interaction with AMPAR.

[2] = target: T1, native NPR of mouse brain; test: co-IP from mouse brain lysate with a rabbit antibody to NP1; knockout lysates as controls
Text: as §1

[3] = target: T2, neuronal pentraxin receptor (NPR), full length, rat (rat, UniProt O35764 1-494); test: co-IP from co-transfected HEK293T cells
T2 construct: whole, on cells; Stands for NPR expressed in HEK293T cells and for native NPR of rat brain extracts; also called full-length NPR; wtNPR
T2 sequence (looked up): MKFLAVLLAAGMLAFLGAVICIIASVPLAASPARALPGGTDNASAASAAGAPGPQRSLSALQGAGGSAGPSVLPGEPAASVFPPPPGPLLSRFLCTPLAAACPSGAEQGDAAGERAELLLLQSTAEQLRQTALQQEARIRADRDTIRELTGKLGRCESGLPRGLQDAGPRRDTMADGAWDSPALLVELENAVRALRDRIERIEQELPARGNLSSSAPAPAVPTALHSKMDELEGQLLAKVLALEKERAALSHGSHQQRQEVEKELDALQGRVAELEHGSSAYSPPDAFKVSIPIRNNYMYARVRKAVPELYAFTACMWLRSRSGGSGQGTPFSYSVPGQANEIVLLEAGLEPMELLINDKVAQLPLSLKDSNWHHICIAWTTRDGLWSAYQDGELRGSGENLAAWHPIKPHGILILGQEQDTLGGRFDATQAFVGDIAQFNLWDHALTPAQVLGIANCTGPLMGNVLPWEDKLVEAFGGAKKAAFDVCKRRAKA
Text: as §1
(§2) To determine if NPR would interact with AMPAR, AMPAR subunits from GluR1 or GluR6 were HA tagged (GluR1-HA and GluR6-HA, respectively) were co-transfected with myc-tagged Narp (Narp-myc) or NPR(NPR-myc) into HEK293T cells. Lysates were assayed for co-immunoprecipitation. […] Similarly, GluR1-HA but not GluR6-HA co-IPed with NPR-myc.

[4] = target: T3, GluR6-HA (HA tagged GluR6 of Example 10) (UniProt P42260 32-908, limits assumed); test: co-IP from co-transfected HEK293T cells
T3 construct: whole, on cells; not shown: HA tag
Text: as §1, §2

T3 sequence (P42260 32-908 limits assumed): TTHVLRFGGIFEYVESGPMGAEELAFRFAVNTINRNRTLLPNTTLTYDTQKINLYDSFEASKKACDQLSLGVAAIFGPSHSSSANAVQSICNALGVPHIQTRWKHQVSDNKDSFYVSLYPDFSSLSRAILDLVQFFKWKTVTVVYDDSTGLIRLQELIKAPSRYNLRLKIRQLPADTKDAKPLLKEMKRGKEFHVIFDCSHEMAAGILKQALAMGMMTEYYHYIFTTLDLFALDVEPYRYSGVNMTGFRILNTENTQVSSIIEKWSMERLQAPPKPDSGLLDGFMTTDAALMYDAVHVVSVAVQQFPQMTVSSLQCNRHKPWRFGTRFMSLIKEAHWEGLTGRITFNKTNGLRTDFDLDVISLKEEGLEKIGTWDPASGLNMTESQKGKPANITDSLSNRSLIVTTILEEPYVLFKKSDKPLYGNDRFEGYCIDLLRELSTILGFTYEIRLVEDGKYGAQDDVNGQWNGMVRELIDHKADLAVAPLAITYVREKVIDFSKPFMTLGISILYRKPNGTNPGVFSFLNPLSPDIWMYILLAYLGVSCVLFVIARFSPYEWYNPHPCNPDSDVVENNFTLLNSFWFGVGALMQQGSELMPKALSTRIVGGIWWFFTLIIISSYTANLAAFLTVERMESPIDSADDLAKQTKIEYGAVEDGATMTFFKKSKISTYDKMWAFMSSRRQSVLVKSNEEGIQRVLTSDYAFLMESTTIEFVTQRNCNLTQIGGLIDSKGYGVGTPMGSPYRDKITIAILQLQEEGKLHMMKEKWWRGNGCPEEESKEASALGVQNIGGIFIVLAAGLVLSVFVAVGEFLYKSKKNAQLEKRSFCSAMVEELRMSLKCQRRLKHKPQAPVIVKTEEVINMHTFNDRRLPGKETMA

B1: native Narp of mouse brain (ligand, UniProt O70340 15-429, looked up)
chain: AGRAQDSPIPGSRFVCTALPPEAARAGCPLPAMPMQGGALSPEEELRAAVLQLRETVVQQKETLGAQREAIRELTGKLARCEGLAGGKARGTGKDTMGDLPRDPGHVVEQLSRSLQTLKDRLESLELQLRTNVSNAGLPSDFREVLQRRLGELERQLLRKVAELEDEKSLLHNETSAHRQKTESTLNALLQRVTELERGNSAFKSPDAFKVSLPLRTNYLYGKIKKTLPELYAFTICLWLRSSASPGIGTPFSYAVPGQANEIVLIEWGNNPIELLINDKVAQLPLFVSDGKWHHICITWTTRDGMWEAFQDGEKLGTGENLAPWHPIKPGGVLILGQEQDTVGGRFDATQAFVGELSQFNIWDRVLRAQEIINIANCSTNMPGNIIPWVDNNVDVFGGASKWPVETCEERLLDL
Question: Does B1 bind [1]?
Answer: binds

B2: native neuronal pentraxin 1 (NP1) of mouse brain (ligand, UniProt Q62443 23-432, looked up)
chain: QDFGPTRFICTSVPVDADMCAASVAAGGAEELRSNVLQLRETVLQQKETILSQKETIRELTTKLGRCESQSTLDSGPGEARSGGGRKQPGSGKNTMGDLSRTPAAETLSQLGQTLQSLKTRLENLEQYSRLNSSSQTNSLKDLLQSKIDDLERQVLSRVNTLEEGKGGPKNDTEERAKIESALTSLHQRISELEKGQKDNRPGDKFQLTFPLRTNYMYAKVKKSLPEMYAFTVCMWLKSSAAPGVGTPFSYAVPGQANELVLIEWGNNPMEILINDKVAKLPFVINDGKWHHICVTWTTRDGVWEAYQDGTQGGNGENLAPYHPIKPQGVLVLGQEQDTLGGGFDATQAFVGELAHFNIWDRKLTPGEVYNLATCSSKALSGNVIAWAESQIEIFGGATKWTFEACRQIN
Question: Does B2 bind [2]?
Answer: binds

B3: Narp (C1, 3S)-myc, Narp mutant in which cysteines 14 and 79 are mutated to serines (ligand)
chain: QAQDNPIPGSRFVSTALPPEAARAGCPLPAMPMQGGALSPEEELRAAVLHWRETVVQQKETLGAQREAIRELTSKLARSEGLAGGKARGTGATGKDTMGDLPRDPGHVVEQLSRSLQTLKDRLESLELQLHTNASNAGLPSDFREVLQRRLGELERQLLRKVAELEDEKSLLHNETSAHRQKTENTLNALLQRVTELERGNSAFKSPDAFKVSLPLRTNYLYGKIKKTLPELYAFTICLWLRSSASPGIGTPFSYAVPGQANEIVLIEWGNNPIELLINDKVAQLPLFVSDGKWHHICITWTTRDGMWEAFQDGEKLGTGENLAPWHPIKPGGVLILGQEQDTVGGRFDATQAFVGELSQFNIWDRVLRAQEIINIANCSTNMPGNIIPWVDNNVDVFGGASKWPVETCEERLLDL
notes: also called Narp (C1, 2S); mutant Narp; not shown: C-terminal myc tag
Question: Does B3 bind [3]?
Answer: no binding

B4: Narp (C1, 2, 3S)-myc, Narp mutant in which cysteines 14, 26, and 79 are mutated to serines (ligand)
chain: QAQDNPIPGSRFVSTALPPEAARAGSPLPAMPMQGGALSPEEELRAAVLHWRETVVQQKETLGAQREAIRELTSKLARSEGLAGGKARGTGATGKDTMGDLPRDPGHVVEQLSRSLQTLKDRLESLELQLHTNASNAGLPSDFREVLQRRLGELERQLLRKVAELEDEKSLLHNETSAHRQKTENTLNALLQRVTELERGNSAFKSPDAFKVSLPLRTNYLYGKIKKTLPELYAFTICLWLRSSASPGIGTPFSYAVPGQANEIVLIEWGNNPIELLINDKVAQLPLFVSDGKWHHICITWTTRDGMWEAFQDGEKLGTGENLAPWHPIKPGGVLILGQEQDTVGGRFDATQAFVGELSQFNIWDRVLRAQEIINIANCSTNMPGNIIPWVDNNVDVFGGASKWPVETCEERLLDL
notes: also called mutant Narp; not shown: C-terminal myc tag
Question: Does B4 bind [3]?
Answer: no binding

B5: C-terminal myc-tagged version of Narp (myc-Narp) (ligand)
chain: QAQDNPIPGSRFVCTALPPEAARAGCPLPAMPMQGGALSPEEELRAAVLHWRETVVQQKETLGAQREAIRELTSKLARCEGLAGGKARGTGATGKDTMGDLPRDPGHVVEQLSRSLQTLKDRLESLELQLHTNASNAGLPSDFREVLQRRLGELERQLLRKVAELEDEKSLLHNETSAHRQKTENTLNALLQRVTELERGNSAFKSPDAFKVSLPLRTNYLYGKIKKTLPELYAFTICLWLRSSASPGIGTPFSYAVPGQANEIVLIEWGNNPIELLINDKVAQLPLFVSDGKWHHICITWTTRDGMWEAFQDGEKLGTGENLAPWHPIKPGGVLILGQEQDTVGGRFDATQAFVGELSQFNIWDRVLRAQEIINIANCSTNMPGNIIPWVDNNVDVFGGASKWPVETCEERLLDL
notes: also called myc-tagged Narp; myc-tagged full length Narp; not shown: C-terminal myc tag
Question: Does B5 bind [4]?
Answer: no binding
